How the values were obtained:
[1] = biological target: T1, Homo sapiens factor Bb protein (human, UniProt P00751 260-764); assay: SPR single cycle kinetics; ratio against VH0/Vκ0
T1 construct: Bought from CompTech (A155); also called complement factor Bb; human factor Bb
Procedure: (§1) In order to assess the binding of all humanized variants, single cycle kinetic analysis was performed on supernatants from transfected cell cultures. […] All single cycle kinetic experiments were run at 25° C. with HBS-P+running buffer (pH 7. 4) (GE Healthcare, Little Chalfont, UK).
(§2) Antibodies were diluted in running buffer to a final concentration of 1 μg/ml, based on concentrations assessed by ELISA titer. At the start of each cycle, antibodies were loaded onto Fc2, Fc3 and Fc4 of the Protein A chip (GE Healthcare, Little Chalfont, UK). IgGs were captured at a flow rate of 10 μl/min to give an immobilization level (RL) of ˜63 RU, the theoretical value to obtain an Rmax of ˜50 RU. The surface was then allowed to stabilize. Single cycle kinetic data was obtained with factor Bb (CompTech, Tyler, USA) as the analyte at a flow rate of 30 μl/min to minimize any potential mass transport limitations. Multiple repeats with the reference chimeric antibody were performed to check the stability of the surface and analyte over the kinetic cycles. The signal from the reference channel Fc1 (no antibody) was subtracted from that of Fc2, Fc3 and Fc4 to correct for differences in non-specific binding to a reference surface. A four point, two-fold dilution range from 0. 78 nM to 6. 25 nM factor Bb without regeneration between each concentration was used. The association phase for the four injections of increasing concentrations of factor Bb was monitored for 200 seconds each time and a single dissociation phase was measured for 200 seconds following the last injection of factor Bb. Regeneration of the Protein A surface was conducted using two injections of 10 mM glycine-HCL pH 1. 5.
(§3) The sensorgrams and fitted data for the single cycle kinetics are shown in FIGS. 1A-1D and the kinetic parameters measured for the interaction of factor Bb with each antibody are shown in Table 7. The relative KD was calculated by dividing the KD of the VH0/Vκ0 reference antibody by that of the humanized variant assayed in the same experiment.

[2] = biological target: T1, Homo sapiens factor Bb protein; assay: SPR single cycle kinetics, IgG on Protein A chip, factor Bb analyte
Procedure: as §1, §2, §3

T1 sequence (P00751 260-764 limits assumed): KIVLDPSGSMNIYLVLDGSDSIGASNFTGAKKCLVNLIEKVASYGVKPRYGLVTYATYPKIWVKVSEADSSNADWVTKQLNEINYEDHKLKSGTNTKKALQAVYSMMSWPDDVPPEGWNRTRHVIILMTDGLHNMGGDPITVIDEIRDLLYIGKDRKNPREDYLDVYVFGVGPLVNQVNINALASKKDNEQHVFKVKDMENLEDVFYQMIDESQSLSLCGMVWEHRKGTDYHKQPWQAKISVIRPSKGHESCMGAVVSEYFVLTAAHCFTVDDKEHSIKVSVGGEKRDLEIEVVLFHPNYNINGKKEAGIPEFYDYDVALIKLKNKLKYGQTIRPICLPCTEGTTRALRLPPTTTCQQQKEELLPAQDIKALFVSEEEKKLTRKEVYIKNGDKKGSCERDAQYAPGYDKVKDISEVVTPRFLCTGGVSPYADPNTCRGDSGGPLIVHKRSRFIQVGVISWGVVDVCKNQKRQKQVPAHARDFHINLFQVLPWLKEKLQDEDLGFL

| Relative KD [1] | Kd [2] [nM] | koff [2] [s⁻¹] | kon [2] [M⁻¹ s⁻¹] | Binder |
| --- | --- | --- | --- | --- |
| 2.97 | 5.22 | 0.00251 | 481000 | VH1/Vκ2 (antibody, V domains shown) VH: EVQLVESGGGLVKPGGSLRLSCAASGFTFSNYAMSWVRQAPGKGLEWVATISNRGSYTYYPDSVKGRFTISRDNAKNSLYLQMSSLRSEDTALYYCARERPMDYWGQGTSVTVSS VL: DIVMTQSPSTLSASVGDRVTITCKASQDVGTAVAWYQQKPGQPPKLLIYWASTRHTGVPDRFTGSGSGTDFTLTISSLQAEDFAVYFCHQHSSNPLTFGQGTKLEIK |
| 7.9 | 13.9 | 0.00404 | 291000 | VH3/Vκ1 (antibody, V domains shown) VH: EVQLVESGGGLVKPGGSLRLSCAASGFTFSNYAMSWVRQAPGKGLEWVATISNRGSYTYYADSVKGRFTISRDNAKNSLYLQMNSLRAEDTALYYCARERPMDYWGQGTLVTVSS VL: DIVMTQSPSFLSASVGDRVTITCKASQDVGTAVAWYQQKPGQPPKLLIYWASTRHTGVPDRFTGSGSGTDFTLTISSLQSEDFAVYFCHQHSSNPLTFGQGTKLEIK |
| 1.52 | 2.68 | 0.00157 | 586000 | VH0/Vκ1 (control) (antibody, V domains shown) VH: EVQLVESGGALVKPGGSLKLSCAASGFTFSNYAMSWVRQTPEKRLEWVATISNRGSYTYYPDSVKGRFTISRDNAKNTLYLQMSSLRSEDTALYYCARERPMDYWGQGTSVTVSS VL: DIVMTQSPSFLSASVGDRVTITCKASQDVGTAVAWYQQKPGQPPKLLIYWASTRHTGVPDRFTGSGSGTDFTLTISSLQSEDFAVYFCHQHSSNPLTFGQGTKLEIK |
| 6.19 | 10.9 | 0.00368 | 339000 | VH2/Vκ4 (antibody, V domains shown) VH: EVQLVESGGGLVKPGGSLRLSCAASGFTFSNYAMSWVRQAPGKGLEWVATISNRGSYTYYPDSVKGRFTISRDNAKNSLYLQMNSLRAEDTALYYCARERPMDYWGQGTLVTVSS VL: DIQMTQSPSTLSASVGDRVTITCRASQDVGTAVAWYQQKPGQPPKLLIYWASTRHTGVPDRFSGSGSGTDFTLTISSLQAEDFAVYYCHQHSSNPLTFGQGTKLEIK |
| 5.09 | 8.96 | 0.00201 | 225000 | VH1/Vκ5 (antibody, V domains shown) VH: EVQLVESGGGLVKPGGSLRLSCAASGFTFSNYAMSWVRQAPGKGLEWVATISNRGSYTYYPDSVKGRFTISRDNAKNSLYLQMSSLRSEDTALYYCARERPMDYWGQGTSVTVSS VL: DIQMTQSPSTLSASVGDRVTITCRASQDVGTAVAWYQQKPGQPPKLLIYWASTRHTGVPDRFSGSGSGTDFTLTISSLQAEDFATYYCHQHSSNPLTFGQGTKLEIK |
| 2.85 | 5.01 | 0.00287 | 574000 | VH1/Vκ1 (antibody, V domains shown) VH: EVQLVESGGGLVKPGGSLRLSCAASGFTFSNYAMSWVRQAPGKGLEWVATISNRGSYTYYPDSVKGRFTISRDNAKNSLYLQMSSLRSEDTALYYCARERPMDYWGQGTSVTVSS VL: DIVMTQSPSFLSASVGDRVTITCKASQDVGTAVAWYQQKPGQPPKLLIYWASTRHTGVPDRFTGSGSGTDFTLTISSLQSEDFAVYFCHQHSSNPLTFGQGTKLEIK |
| 11.8 | 20.7 | 0.00373 | 180000 | VH2/Vκ1 (antibody, V domains shown) VH: EVQLVESGGGLVKPGGSLRLSCAASGFTFSNYAMSWVRQAPGKGLEWVATISNRGSYTYYPDSVKGRFTISRDNAKNSLYLQMNSLRAEDTALYYCARERPMDYWGQGTLVTVSS VL: DIVMTQSPSFLSASVGDRVTITCKASQDVGTAVAWYQQKPGQPPKLLIYWASTRHTGVPDRFTGSGSGTDFTLTISSLQSEDFAVYFCHQHSSNPLTFGQGTKLEIK |
| 3.7 | 6.52 | 0.00294 | 451000 | VH1/Vκ4 (antibody, V domains shown) VH: EVQLVESGGGLVKPGGSLRLSCAASGFTFSNYAMSWVRQAPGKGLEWVATISNRGSYTYYPDSVKGRFTISRDNAKNSLYLQMSSLRSEDTALYYCARERPMDYWGQGTSVTVSS VL: DIQMTQSPSTLSASVGDRVTITCRASQDVGTAVAWYQQKPGQPPKLLIYWASTRHTGVPDRFSGSGSGTDFTLTISSLQAEDFAVYYCHQHSSNPLTFGQGTKLEIK |
| 2.22 | 3.9 | 0.00263 | 675000 | VH1/Vκ3 (antibody, V domains shown) VH: EVQLVESGGGLVKPGGSLRLSCAASGFTFSNYAMSWVRQAPGKGLEWVATISNRGSYTYYPDSVKGRFTISRDNAKNSLYLQMSSLRSEDTALYYCARERPMDYWGQGTSVTVSS VL: DIQMTQSPSTLSASVGDRVTITCKASQDVGTAVAWYQQKPGQPPKLLIYWASTRHTGVPDRFSGSGSGTDFTLTISSLQAEDFAVYFCHQHSSNPLTFGQGTKLEIK |
| 7.9 | 13.9 | 0.00326 | 234000 | VH2/Vκ2 (antibody, V domains shown) VH: EVQLVESGGGLVKPGGSLRLSCAASGFTFSNYAMSWVRQAPGKGLEWVATISNRGSYTYYPDSVKGRFTISRDNAKNSLYLQMNSLRAEDTALYYCARERPMDYWGQGTLVTVSS VL: DIVMTQSPSTLSASVGDRVTITCKASQDVGTAVAWYQQKPGQPPKLLIYWASTRHTGVPDRFTGSGSGTDFTLTISSLQAEDFAVYFCHQHSSNPLTFGQGTKLEIK |
| 8.47 | 14.9 | 0.00329 | 220000 | VH3/Vκ3 (antibody, V domains shown) VH: EVQLVESGGGLVKPGGSLRLSCAASGFTFSNYAMSWVRQAPGKGLEWVATISNRGSYTYYADSVKGRFTISRDNAKNSLYLQMNSLRAEDTALYYCARERPMDYWGQGTLVTVSS VL: DIQMTQSPSTLSASVGDRVTITCKASQDVGTAVAWYQQKPGQPPKLLIYWASTRHTGVPDRFSGSGSGTDFTLTISSLQAEDFAVYFCHQHSSNPLTFGQGTKLEIK |
| 6.93 | 12.2 | 0.00307 | 252000 | VH2/Vκ3 (antibody, V domains shown) VH: EVQLVESGGGLVKPGGSLRLSCAASGFTFSNYAMSWVRQAPGKGLEWVATISNRGSYTYYPDSVKGRFTISRDNAKNSLYLQMNSLRAEDTALYYCARERPMDYWGQGTLVTVSS VL: DIQMTQSPSTLSASVGDRVTITCKASQDVGTAVAWYQQKPGQPPKLLIYWASTRHTGVPDRFSGSGSGTDFTLTISSLQAEDFAVYFCHQHSSNPLTFGQGTKLEIK |
| 9.09 | 16 | 0.00377 | 236000 | VH3/Vκ2 (antibody, V domains shown) VH: EVQLVESGGGLVKPGGSLRLSCAASGFTFSNYAMSWVRQAPGKGLEWVATISNRGSYTYYADSVKGRFTISRDNAKNSLYLQMNSLRAEDTALYYCARERPMDYWGQGTLVTVSS VL: DIVMTQSPSTLSASVGDRVTITCKASQDVGTAVAWYQQKPGQPPKLLIYWASTRHTGVPDRFTGSGSGTDFTLTISSLQAEDFAVYFCHQHSSNPLTFGQGTKLEIK |
| 9.43 | 16.6 | 0.00375 | 225000 | VH2/Vκ5 (antibody, V domains shown) VH: EVQLVESGGGLVKPGGSLRLSCAASGFTFSNYAMSWVRQAPGKGLEWVATISNRGSYTYYPDSVKGRFTISRDNAKNSLYLQMNSLRAEDTALYYCARERPMDYWGQGTLVTVSS VL: DIQMTQSPSTLSASVGDRVTITCRASQDVGTAVAWYQQKPGQPPKLLIYWASTRHTGVPDRFSGSGSGTDFTLTISSLQAEDFATYYCHQHSSNPLTFGQGTKLEIK |
